Several values for one entry are separate records, joined by “and”; a condition that tells them apart may be missing. Equal values may be shown once. One block for each binder: values may come before it.
What was measured:
[1] = biological target: T1, FAM19A5 epitope fragment F1 conjugated to BSA (human); test: ELISA, antigen coated on the plate, antibody in solution, absorbance at 492 nm; details: remark: other sources report otherwise
T1 chain: QLAAGTCEIVTLDR

[2] = biological target: T2, FAM19A5 epitope fragment F3 conjugated to BSA (human); test: as above; details: remark: other sources report otherwise
T2 chain: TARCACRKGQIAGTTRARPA

[3] = biological target: T3, FAM19A5 epitope fragment F4 conjugated to BSA (human); test: as above; details: remark: other sources report otherwise
T3 chain: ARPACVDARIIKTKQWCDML

[4] = biological target: T4, FAM19A5 epitope fragment F5 conjugated to BSA (human); test: as above; details: remark: other sources report otherwise
T4 chain: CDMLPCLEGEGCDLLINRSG

[5] = biological target: T5, FAM19A5 epitope fragment F6 conjugated to BSA (human); test: as above; details: remark: other sources report otherwise
T5 chain: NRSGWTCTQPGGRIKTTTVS

[6] = biological target: recombinant human FAM19A5 protein (His-tagged) (human) (UniProt Q7Z5A7); test: ELISA on coated FAM19A5, as in Example 6
[7] = biological target: recombinant human FAM19A5 protein (His-tagged) (human) (UniProt Q7Z5A7); test: ELISA on N'-Term His FAM19A5, fit of the titration (OD 492 nm); R2 printed 0.8806
[8] = biological target: recombinant human FAM19A5 protein (His-tagged) (human) (UniProt Q7Z5A7); test: ELISA, His-FAM19A5 (positive control) coated on the plate, absorbance at 492 nm
[9] = biological target: recombinant human FAM19A5 protein (His-tagged) (human) (UniProt Q7Z5A7); test: two-site sandwich ELISA; capture antibody 3-2; biotinylated detection antibody 1-65; antigen in ng/mL
[10] = biological target: recombinant human FAM19A5 protein (His-tagged) (human) (UniProt Q7Z5A7); test: two-site sandwich ELISA; capture antibody 13B4; biotinylated detection antibody 1-65; antigen in ng/mL
[11] = biological target: recombinant human FAM19A5 protein (His-tagged) (human) (UniProt Q7Z5A7); test: two-site sandwich ELISA; capture antibody 2-13; biotinylated detection antibody 1-65; antigen in ng/mL
[12] = biological target: recombinant human FAM19A5 protein (His-tagged) (human) (UniProt Q7Z5A7); test: two-site sandwich ELISA; capture antibody P2-A03; biotinylated detection antibody 1-65; antigen in ng/mL
[13] = biological target: recombinant human FAM19A5 protein (His-tagged) (human) (UniProt Q7Z5A7); test: two-site sandwich ELISA; capture antibody P2-F11; biotinylated detection antibody 1-65; antigen in ng/mL
[14] = biological target: recombinant human FAM19A5 protein (His-tagged) (human) (UniProt Q7Z5A7); test: two-site sandwich ELISA; capture antibody 3-2; S/N = O.D. at 10 ng/mL antigen / O.D. at 0 ng/mL; O.D. in column 0 printed 0.28
[15] = biological target: recombinant human FAM19A5 protein (His-tagged) (human) (UniProt Q7Z5A7); test: two-site sandwich ELISA; capture antibody 13B4; S/N = O.D. at 10 ng/mL antigen / O.D. at 0 ng/mL; O.D. in column 0 printed 0.15
[16] = biological target: recombinant human FAM19A5 protein (His-tagged) (human) (UniProt Q7Z5A7); test: two-site sandwich ELISA; capture antibody 2-13; S/N = O.D. at 10 ng/mL antigen / O.D. at 0 ng/mL; O.D. in column 0 printed 0.55
[17] = biological target: recombinant human FAM19A5 protein (His-tagged) (human) (UniProt Q7Z5A7); test: two-site sandwich ELISA; capture antibody P2-A03; S/N = O.D. at 10 ng/mL antigen / O.D. at 0 ng/mL; O.D. in column 0 printed 0.1
[18] = biological target: recombinant human FAM19A5 protein (His-tagged) (human) (UniProt Q7Z5A7); test: two-site sandwich ELISA; capture antibody P2-F11; S/N = O.D. at 10 ng/mL antigen / O.D. at 0 ng/mL; O.D. in column 0 printed 0.19
[19] = biological target: recombinant human FAM19A5 protein (His-tagged) (human) (UniProt Q7Z5A7); test: ELISA on N'-Term His FAM19A5, fit of the titration; R2 printed 0.9329
[20] = biological target: recombinant human FAM19A5 protein (His-tagged) (human) (UniProt Q7Z5A7); test: ELISA on N'-Term His FAM19A5, fit of the titration (OD 492 nm); R2 printed 0.9329
[21] = biological target: recombinant human FAM19A5 protein (His-tagged) (human) (UniProt Q7Z5A7); test: ELISA on N'-Term His FAM19A5, fit of the titration; R2 printed 0.8823
[22] = biological target: recombinant human FAM19A5 protein (His-tagged) (human) (UniProt Q7Z5A7); test: ELISA on N'-Term His FAM19A5, fit of the titration (OD 492 nm); R2 printed 0.8823
[23] = biological target: recombinant human FAM19A5 protein (His-tagged) (human) (UniProt Q7Z5A7); test: two-site sandwich ELISA; capture antibody 3-2; biotinylated detection antibody 13B4; antigen in ng/mL
[24] = biological target: recombinant human FAM19A5 protein (His-tagged) (human) (UniProt Q7Z5A7); test: two-site sandwich ELISA; capture antibody 1-65; biotinylated detection antibody 13B4; antigen in ng/mL
[25] = biological target: recombinant human FAM19A5 protein (His-tagged) (human) (UniProt Q7Z5A7); test: two-site sandwich ELISA; capture antibody 2-13; biotinylated detection antibody 13B4; antigen in ng/mL
[26] = biological target: recombinant human FAM19A5 protein (His-tagged) (human) (UniProt Q7Z5A7); test: two-site sandwich ELISA; capture antibody P2-A03; biotinylated detection antibody 13B4; antigen in ng/mL
[27] = biological target: recombinant human FAM19A5 protein (His-tagged) (human) (UniProt Q7Z5A7); test: two-site sandwich ELISA; capture antibody P2-F11; biotinylated detection antibody 13B4; antigen in ng/mL
[28] = biological target: recombinant human FAM19A5 protein (His-tagged) (human) (UniProt Q7Z5A7); test: two-site sandwich ELISA; capture antibody 3-2; S/N = O.D. at 10 ng/mL antigen / O.D. at 0 ng/mL; O.D. in column 0 printed 0.13
[29] = biological target: recombinant human FAM19A5 protein (His-tagged) (human) (UniProt Q7Z5A7); test: two-site sandwich ELISA; capture antibody 1-65; S/N = O.D. at 10 ng/mL antigen / O.D. at 0 ng/mL; O.D. in column 0 printed 0.12
[30] = biological target: recombinant human FAM19A5 protein (His-tagged) (human) (UniProt Q7Z5A7); test: two-site sandwich ELISA; capture antibody 2-13; S/N = O.D. at 10 ng/mL antigen / O.D. at 0 ng/mL; O.D. in column 0 printed 0.21
[31] = biological target: recombinant human FAM19A5 protein (His-tagged) (human) (UniProt Q7Z5A7); test: two-site sandwich ELISA; capture antibody P2-A03; S/N = O.D. at 10 ng/mL antigen / O.D. at 0 ng/mL; O.D. in column 0 printed 0.14
[32] = biological target: recombinant human FAM19A5 protein (His-tagged) (human) (UniProt Q7Z5A7); test: two-site sandwich ELISA; capture antibody P2-F11; S/N = O.D. at 10 ng/mL antigen / O.D. at 0 ng/mL; O.D. in column 0 printed 0.15

- O.D. [1]: 0.06 and 0.05
- O.D. [2]: 0.06 and 0.05
- O.D. [3]: 0.05
- O.D. [4]: 0.05
- O.D. [5]: 0.05
B1: anti-FAM19A5 antibody 3-2 (antibody, V domains shown)
VH: not shown
VL: ALTQPSSVSANPGETVKITCSGGGSYAGSYYYGWYQQKAPGSAPVTLIYESNKRPSDIPSRFSGSTSGSTATLTITGVQADDEAIYYCGSWDSSNGGIFGAGTTLTVL
modifications: here or on the partner: conjugated to BSA

- Kd [6]: 0.1 nM
- Bmax [7]: 3.26
- O.D. [8]: 3.95
- O.D., antigen 100 [9]: 1.98
- O.D., antigen column 10 [9]: 1.83
- O.D., antigen 100 [10]: 0.19
- O.D., antigen column 10 [10]: 0.15
- O.D., antigen 100 [11]: 1.73
- O.D., antigen column 10 [11]: 1.81
- O.D., antigen 100 [12]: 0.16
- O.D., antigen column 10 [12]: 0.11
- O.D., antigen 100 [13]: 1.61
- O.D., antigen column 10 [13]: 0.33
- S/N [14]: 6.5
- S/N [15]: 1
- S/N [16]: 3.3
- S/N [17]: 1.1
- S/N [18]: 1.7
B2: anti-FAM19A5 antibody 1-65 (antibody, V domains shown)
VH: AVTLDESGGGLQTPGGALSLVCKASGFTFSSYQMGWVRQAPGKGLEWVGVINKSGSDTSYGSAVKGRATISRDNGQSTVRLQLNNLRAEDTGTYFCAKGSASYITAATIDAWGHGTEVIVSS
VL: ALTQPSSVSANPGETVKITCSGGGSSGYGYGWYQQKSPSSAPLTVIYWNDKRPSDIPSRFSGSKSGSTHTLTITGVQAEDEAVYFCGNDDYSSDSGYVGVFGAGTTLTVL

- Kd [19]: 2.77 nM
- Bmax [20]: 3.04
B3: 13F7 (antibody, V domains shown)
VH: QVQLQEWGAGLLKPSETLSLTCAINAESFNGYSWTWIRQTPGKGLEWIGEISHFGSANYNPSLKSRATISADKSKNQFSLKLTSVTAVDTAVYYCARALRGTYSRFYYGMDVWGQGTTVTVSS
VL: DIVMTQTPLSLPVAPGEPASISCRSSQSLLHSNGYNYLDWYVQKPGQPPQLLIYLGSNRASGVPDRFSGSGSGTDFTLKISRVEAEDVGVYYCMQARQTPLTFGGGTKVEIKR

- Kd [21]: 1.06 nM
- Bmax [22]: 2.84
- O.D., antigen 100 [23]: 1.7
- O.D., antigen column 10 [23]: 0.3
- O.D., antigen 100 [24]: 0.12
- O.D., antigen column 10 [24]: 0.12
- O.D., antigen 100 [25]: 1.92
- O.D., antigen column 10 [25]: 0.65
- O.D., antigen 100 [26]: 0.15
- O.D., antigen column 10 [26]: 0.16
- O.D., antigen 100 [27]: 0.14
- O.D., antigen column 10 [27]: 0.16
- S/N [28]: 2.3
- S/N [29]: 1
- S/N [30]: 3.1
- S/N [31]: 1.1
- S/N [32]: 1.1
B4: anti-FAM19A5 antibody 13B4 (antibody, V domains shown)
VH: QVQLQESGPGLVKPSGTLSLNCAVSGGSISSSNWWSWVRQPPGKGLEWIGEIYHGGTTNYNPSLKGRVTMSVDKTKNQFSLRLSSVTAVDTAVYYCARWQLVGGLDVWGQGTTVTVSS
VL: SYELTQPLSVSVSPGQTASITCSGDKLGNVYASWYQQKPGQSPTLVIYQDNKRPSGIPERFSGSNSGKTATLTISGTQALDEADYYCQAWDSSTAVFGGGTKLTVLR
modifications: Biotinylated when used as detection antibody in FIG. 6B.

Reference: patent US20200299373A1
